Test results taken from US20170283834A1, “Processes for Producing A Fermentation Product Using A Fermenting Organism” (Novozymes A/S, priority 2014, published 2017).
Residue numbers refer to the chain shown, from its start. Names and notes keep the numbering of the source.

B1: JTP196: protease variant of SEQ ID NO: 3: A27K D79L Y82F S87G D104P A112P A126V D142L (protein, listed as Thermoascus aurantiacus)
chain: MRLVASLTALVALSVPVFPAAVNVKRASSYLEITLSQVSNTLIKAVVQNTGSDELSFVHLNFFKDPAPVKKVSVYRDGSEVQFEGILSRYKSTGLSRDAFTYLAPGESVEDVFDIASTYDLTSGGPVTIRTEGVVPYATANSTDIAGYISYSSNVLTIDVDGAAAATVSKAITPLDRRTRISSCSGSRQSALTTALRNAASLANKAADAAQSGSASKFSEYFKTTSSSTRQTVAARLRAVAREASSSSSGATTYYCLDPFGYCSGNVLAYTLPSYNIIANCPIFYTYLPPLTSTCHAQDQATTVLHEFTHAPGVYSPGTLDLAYGYQAAMGLSSSQAVMNADTYALYANAIYLGC
B2: JTP188: protease variant of SEQ ID NO: 3: D79L Y82F S87G D104P A112P D142L (protein, listed as Thermoascus aurantiacus)
chain: B1 chain with K205A, V304A
B3: JTP077: protease variant of SEQ ID NO: 3: A27K/D79L/S87P/A112P/D142L (protein, listed as Thermoascus aurantiacus)
chain: B1 chain with F260Y, G265P, P282D, V304A
B4: JTP092: protease variant of SEQ ID NO: 3: ΔS5/N26R/D79L/S87P/A112P/D142L (protein, listed as Thermoascus aurantiacus)
chain: MRLVASLTALVALSVPVFPAAVNVKRASSYLEITLSQVSNTLIKAVVQNTGSDELSFVHLNFFKDPAPVKKVSVYRDGSEVQFEGILSRYKSTGLSRDAFTYLAPGESVEDVFDIASTYDLTSGGPVTIRTEGVVPYATANSTDIAGYISYSSNVLTIDVDGAAAATVSKAITPLDRRTRISCSGSRQSALTTALRNAASLARAAADAAQSGSASKFSEYFKTTSSSTRQTVAARLRAVAREASSSSSGATTYYCLDPYGYCSPNVLAYTLPSYNIIANCDIFYTYLPPLTSTCHAQDQATTALHEFTHAPGVYSPGTLDLAYGYQAAMGLSSSQAVMNADTYALYANAIYLGC

How the values were obtained:
Assay type in all cases: biochemical
[1] = test system: zein; experiment: Relative activity assay of protease variants (zein micro titer plate)
In short: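 Yeast culture supernatants (3 days, 28 °C) incubated over 4 h or overnight on zein-agar plates (pH 4.5 acetate, 0.25 mM ZnSO4) at two temperatures. Zein turbidity read at A630; higher/lower-temperature activity ratio gives relative thermoactivity.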

[2] = test system: zein; experiment: Zein-BCA assay, temperature profile of purified protease variants
Protocol: Selected variants showing good thermo-stability were purified and the purified enzymes were used in a zein-BCA assay as described below. The remaining protease activity was determined at 60° C. after incubation of the enzyme at elevated temperatures as indicated for 60 min.
Zein-BCA assay was performed to detect soluble protein quantification released from zein by variant proteases at various temperatures.
• 1) Mix 10 ul of 10 ug/ml enzyme solutions and 100 ul of 0.025% zein solution in a micro titer plate (MTP). • 2) Incubate at various temperatures for 60 min. • 3) Add 10 ul of 100% trichloroacetic acid (TCA) solution. • 4) Centrifuge MTP at 3500 rpm for 5 min. • 5) Take out 15 ul to a new MTP containing 100 ul of BCA assay solution (Pierce Cat#:23225, BCA Protein Assay Kit). • 6) Incubate for 30 min. at 60° C. • 7) Measure A562.

[3] = test system: azo-casein; experiment: Remaining activity assay of protease variants (azo-casein); conditions: 10 min at 84° C., pH 4.5, 4° C. as reference
Protocol: Yeast clones on SC-glucose were inoculated to a well of a 96-well micro titre plate and cultivated at 28° C. for 3 days. Protease activity was measured at 65° C. using azo-casein (Megazyme) after incubating the culture supernatant in 20 mM sodium acetate buffer, pH 4.5, for 10 min at a certain temperature (80° C. or 84° C. with 4° C. as a reference) to determine the remaining activity. The clones with higher remaining activity than the parental variant were selected and the sequence was determined.
20 microL of samples were mixed with 150 microL of substrate solution (4 ml of 12.5% azo-casein in ethanol in 96 ml of 20 mM sodium acetate, pH 4.5, containing 0.01% triton-100 and 0.25 mM ZnSO4) and incubated for 4 hours or longer.
After adding 20 microL/well of 100% trichloroacetic acid (TCA) solution, the plate was centrifuge and 100 microL of supernatants were pipette out to measure A440.

[4] = Sample incubated 60 min at 60° C.
[5] = Sample incubated 60 min at 70° C.
[6] = Sample incubated 60 min at 75° C.
[7] = Sample incubated 60 min at 80° C.
[8] = Sample incubated 60 min at 85° C.
[9] = Sample incubated 60 min at 90° C.
[10] = Sample incubated 60 min at 95° C.

Molecule	Relative activity 75° C./70° C. ([1]; Table 5, lower part) [%]	Relative activity 80° C./70° C. ([1]; Table 5, lower part) [%]	Relative activity 85° C./70° C. ([1]; Table 5, upper part) [%]	Bovine serum albumin equivalent peptide released [2, 4] [µg/mL]	Bovine serum albumin equivalent peptide released [2, 5] [µg/mL]	Bovine serum albumin equivalent peptide released [2, 6] [µg/mL]	Bovine serum albumin equivalent peptide released [2, 7] [µg/mL]	Bovine serum albumin equivalent peptide released [2, 8] [µg/mL]	Bovine serum albumin equivalent peptide released [2, 9] [µg/mL]	Bovine serum albumin equivalent peptide released [2, 10] [µg/mL]	Relative activity 80° C./70° C. ([1]; Table 5, upper part) [%]	Relative activity 75° C./65° C. ([1]; Table 3) [%]	Remaining activity 84° C. [3] [%]
B1	102	55	18	87	99	103	106	117	90	38			
B2				71	83	86	93	100	75	53	43		
B3				82	94	104	105	99	56	31		106	
B4													60
